Measurements from patent US20240254206A1 (ROCKEFELLER UNIVERSITY, published 2024).

B1: 8ANC131 (antibody, V domains shown)
VH: QGQLVQSGGGLKKPGTSVTISCLASEYTFNEFVIHWIRQAPGQGPLWLGLIKRSGRLMTAYNFQDRLRLRRDRSTGTVFMELRGLRPDDTAVYYCARDGLGEVAPDYRYGIDVWGQGSTVIVTA
VL: EIVLTQSPATLSLSPGERATLSCRASQGLNFVVWYQQKRGQAPRLLIHAPSGRAPGVPDRFSARGSGTEFSLVISSVEPDDFAIYYCQEYSSTPYNFGPGTRVDRKR
notes: also called 8ANC131HC; 8ANC131KC
B2: 8ANC134 (antibody, V domains shown)
VH: QGQLVQSGGGVKKPGTSVTISCLASEYTFNEFVIHWIRQAPGQGPVWLGLIKRSGRLMTSYKFQDRLSLRRDRSTGTVFMELRGLRLDDTAVYYCARDGLGEVAPAYLYGIDAWGQGSTVIVTS
VL: EIVLTQSPATLSLSPGERATLSCRASQGLNFVVWYQQKGGQAPRLLIHGPTDRAPGVPDRFSARGSGTEFSLVISSVEPDDFALYYCQEYSSTPYNFGPGTRVDRKR
notes: also called 8ANC134HC; 8ANC134KC
B3: 12A21 (antibody, V domains shown)
VH: SQHLVQSGTQVKKPGASVRVSCQASGYTFTNYILHWWRQAPGQGLEWMGLIKPVFGAVNYARQFQGRIQLTRDIYREIAFLDLSGLRSDDTAVYYCARDESGDDLKWHLHPWGQGTQVIVSP
VL: DIQMTQSPSSLSASVGDRVTINCQAGQGIGSSLNWYQKKPGRAPKLLVHGASNLQRGVPSRFSGSGFHTTFTLTISSLQPDDVATYFCAVFQWFGPGTKVDIKR
notes: also called 12A21HC; 12a21kc
B4: NIH45-46 (antibody, V domains shown)
VH: QVRLSQSGGQMKKPGESMRLSCRASGYEFLNCPINWIRLAPGRRPEWMGWLKPRGGAVNYARKFQGRVTMTRDVYSDTAFLELRSLTSDDTAVYFCTRGKYCTARDYYNWDFEH
VL: EIVLTQSPATLSLSPGETAIISCRTSQSGSLAWYQQRPGQAPRLVIYSGSTRAAGIPDRFSGSRWGADYNLSISNLESGDFGVYYCQQYEFFG
B5: 3BNC55 (antibody, V domains shown)
VH: QVQLVQSGTAVKRPGASVRVSCQASGYTFTDYFIYWWRQAPGQGLEWLGWINPLTSQPSYPSRFQGRLTLTRDTFDEMLYMDLRGLRSDDTGIYFCARRHSDYCDFDIWGSGTQIIVSS
VL: DIQMTQSPSSLSASVGDKVTITCQTSAGYLNWYQQRRGRAPKLLMYDGSRLVTGVPSRFSGRRWGTQYNLTIGSLQPEDIATYYCQVYEFFGPGTRLDLKS
notes: also called 3BNC55HC; 3BNC55KC
B6: 3BNC66 (antibody, V domains shown)
VH: QVQLVQSGAALKKPGASLRISCQTYGYKFTDHLIYWWRQAPGQGLEWIGWIKPETGQPSYSYRFQGRVSLTRDTFEEIAFMDLRGLRSDDTAIYFCARRHTDYCVFDVWGSGSQIIVSS
VL: DIQMTQSPSSLSASVGDTVTITCQTNKGYLNWYQQRRGRAPKLLMYDGSKLVTGVPSRLSGRRWGTQYNLTIGSLQPEDIATYYCQVYEFFGPGTRLDLKR
notes: also called 3BNC66HC; 3bnc66kc
B7: 3BNC156 (antibody, V domains shown)
VH: QVQLVQSGAALKKPGASLRISCQTYGYKFTDHLIYWWRQAPGQGLEWIGWIKPETGQPSYSYRFQGRVSLTRDTFEEIVFMDLRGLRSDDTAIYFCARRHSDYCDFDVWGGGSQVIVSS
VL: DIQMTQSPSSLSASVGDTVTITCQTNKGYLNWYQQKRGRAPKLLMYDGSKLVTGVPSRLSGRRWGTQYNLTIGSLQPEDIATYYCQVYEFFGPGTRLDLKR
notes: also called 3BNC156HC; 3bnc156kc
B8: 12A12 (antibody, V domains shown)
VH: SQQLVQSGTQVKKPGASVRISCQASGYSFTDYVLHWWRQAPGQGLEWMGWIKPVYGARNYARRFQGRINFDRDIYREIAFMDLSGLRSDDTALYFCARDGSGDDTSWHLDPWGQGTLVIVSA
VL: DIQMTQSPSSLSASVGDRVTITCQAGQGIGSSLQWYQQKPGKAPKLLVHGASNLHRGVPSRFSGSGFHTTFSLTISGLQRDDFATYFCAVLEFFGPGTKVEIKR
notes: also called 12A12HC; 12a12kc
B9: 1B2530 (antibody, V domains shown)
VH: QVRLEQSGAAMRKPGASVTLSCQASGYNFVKYIIHWVRQKPGLGFEWVGMIDPYRGRPWSAHKFQGRLSLSRDTSMEILYMTLTSLKSDDTATYFCARAEAASDSHSRPIMFDHWGQGSRVTVSS
VL: QSALTQPPSASGAPGQRVTISCSGGPSNVGGNYVYWYRQFPGTAPTLLILRDDQRPSGVPDRFSASKSGNSASLAISGLRPDDEGFYFCATYDSDGSIRLFGGGTALTVLS
notes: also called LSSB2530HC; LSSB2530LC
B10: 3BNC60 (antibody, V domains shown)
VH: QVHLSQSGAAVTKPGASVRVSCEASGYKISDHFIHWWRQAPGQGLQWVGWINPKTGQPNNPRQFQGRVSLTRQASWDFDTYSFYMDLKAVRSDDTAIYFCARQRSDFWDFDVWGSGTQVTVSSASTKG
VL: DIQMTQSPSSLSARVGDTVTITCQANGYLNWYQQRRGKAPKLLIYDGSKLERGVPARFSGRRWGQEYNLTINNLQPEDVATYFCQVYEFIVPGTRLDLKRTVAA
notes: also called 3BNC60HC; 3BNC60KC
B11: 3BNC117 (antibody, V domains shown)
VH: QVQLLQSGAAVTKPGASVRVSCEASGYNIRDYFIHWWRQAPGQGLQWVGWINPKTGQPNNPRQFQGRVSLTRHASWDFDTFSFYMDLKALRSDDTAVYFCARQRSDYWDFDVWGSGTQVTVSSASTKG
VL: DIQMTQSPSSLSASVGDTVTITCQANGYLNWYQQRRGKAPKLLIYDGSKLERGVPSRFSGRRWGQEYNLTINNLQPEDIATYFCQVYEFVVPGTRLDLKRTVAAPSVFIFPPSD
notes: also called 3BNC117HC; 3bnc117kc
B12: 8ANC195 (antibody, V domains shown)
VH: QIHLVQSGTEVKKPGSSVTVSCKAYGVNTFGLYAVNWVRQAPGQSLEYIGQIWRWKSSASHHFRGRVLISAVDLTGSSPPISSLEIKNLTSDDTAVYFCTTTSTYDKWSGLHHDGVMAFSSWGQGTLISVSA
VL: DIQMTQSPSTLAASIGGTVRVSCRASQSITGNWVAWYQQRPGKAPRLLIYRGAALLGGVPSRFSGSAAGTDFTLTIGNLQAEDFGTFYCQQYDTYPGTFGQGTKVEVKR
notes: also called 8ANC195HC; 8ANC195KC
B13: 1NC9 (antibody, V domains shown)
VH: QVRLVQSGAQLKKPGASVTVSCEASGYNFVNYIINWVRQTPGRSFEWVGMIDPRRGRPWSAQKFQGRLTLTRDIDSEKLYMHLSGLRGDDTAVYYCARQDSDFHDGHGHTLRGMFDSWGQGSPVTVSS
VL: QVLSVSGTPGQRVIISCSGTSSNVGGNLVSWYQHLPGAAPRLLIHRDDQRPSGVPDRFSGSKSGNSASLVISGLRSDDEADYFCAAYDSTFSLPVFGGGTRLTVLS
notes: also called LSSNEC9HC; LSSNEC9LC

Each binder was assayed against 2CC-core (assay: SPR, antigen on chip, IgG injected).

B1 and B2 are within 1.5-fold of each other in Kd: 66.1 nM for the first, 46.1 nM for the second.

Going from B3 to B4, the Kd rises from 1.81 nM to 4.4 nM (2.4-fold). The first binds more tightly here.

B5 and B6 are within 1.5-fold of each other in Kd: 25.7 nM for the first, 33.6 nM for the second.

Compared with B7, B8 is 3000-fold lower in Kd: 81.2 nM for the first, 0.0269 nM for the second. The second binds more tightly here.

Going from B9 to B10, the Kd rises from 5.9 nM to 54.5 nM (9.2-fold). The first binds more tightly here.

B11 and B12 are within 1.5-fold of each other in Kd: 36.8 nM for the first, 54.7 nM for the second.

B13 was tested, and the Kd was 4.61 nM.

Compared with B1, B2 is 3.4-fold lower in koff: 0.00323 s⁻¹ for the first, 0.000957 s⁻¹ for the second.

B3 and B4 are within 1.5-fold of each other in koff: 0.00033 s⁻¹ for the first, 0.000494 s⁻¹ for the second.

B6 and B7 are within 1.5-fold of each other in koff: 0.00133 s⁻¹ for the first, 0.00153 s⁻¹ for the second.

Compared with B8, B9 is 240-fold higher in koff: 1.7e-06 s⁻¹ for the first, 0.000402 s⁻¹ for the second.

B10 and B12 are within 1.5-fold of each other in koff: 0.00164 s⁻¹ for the first, 0.00132 s⁻¹ for the second.

B13 gave a koff of 0.000236 s⁻¹.

First: B1
Second: B2
The kon of the first is 2.3-fold higher: 48800 M⁻¹ s⁻¹ for the first, 20800 M⁻¹ s⁻¹ for the second.

Going from B3 to B4, the kon falls from 182000 M⁻¹ s⁻¹ to 112000 M⁻¹ s⁻¹ (1.6-fold).

Compared with B6, B7 is 2.1-fold lower in kon: 39600 M⁻¹ s⁻¹ for the first, 18800 M⁻¹ s⁻¹ for the second.

B8 and B9 are within 1.5-fold of each other in kon: 63300 M⁻¹ s⁻¹ for the first, 68300 M⁻¹ s⁻¹ for the second.

B10 and B12 are within 1.5-fold of each other in kon: 30200 M⁻¹ s⁻¹ for the first, 24100 M⁻¹ s⁻¹ for the second.

B13 showed a kon of 51100 M⁻¹ s⁻¹.
